According to the RNAGym collection of RNA variant scans (doi:10.1021/acssynbio.7b00057):

B1: Pistol ribozyme (parent)
chain: GGGUCGUUGUUCCAUAAUCGCGUGGAUAUGGCACGCAAGUUUCUACCGGGCACCGUAAAUGUCCGACUGGAGCCGUUCGGGCGGCUAUAAACAGACCUCAGGCCCGAAGCGUGGCGGCACCUGCCGCCGGUGGUAAAAAAGAUCGGAAGAGCACACGUCU

Variants of: B1
Assay: aptazyme ON/OFF ratio, guanine; higher = stronger switching; co-transcriptional cleavage with and without guanine

Point of comparison: GGGUCGAUUACGUAUAAUCGCGUGGAUAUGGCACGCAAGUUUCUACCGGGCACCGUAAAUGUCCGACUGGAGCCGUUCGGGCGGCUAUAAACAGACCUCAGGCCCGAAGCGUGGCGGCACCUGCCGCCGGUGGUAAAAAAGAUCGGAAGAGCACACGUCU, “aptazyme ON/OFF ratio” value 1.13. Against it:
- GGGUCGAUUAACGAUAAUCGCGUGGAUAUGGCACGCAAGUUUCUACCGGGCACCGUAAAUGUCCGACUGGAGCCGUUCGGGCGGCUAUAAACAGACCUCAGGCCCGAAGCGUGGCGGCACCUGCCGCCGGUGGUAAAAAAGAUCGGAAGAGCACACGUCU — lower, 1.1
- GGGUCGAUUAACAAUAAUCGCGUGGAUAUGGCACGCAAGUUUCUACCGGGCACCGUAAAUGUCCGACUGGAGCCGUUCGGGCGGCUAUAAACAGACCUCAGGCCCGAAGCGUGGCGGCACCUGCCGCCGGUGGUAAAAAAGAUCGGAAGAGCACACGUCU — higher, 1.17
- GGGUCGAUUAACUAUAAUCGCGUGGAUAUGGCACGCAAGUUUCUACCGGGCACCGUAAAUGUCCGACUGGAGCCGUUCGGGCGGCUAUAAACAGACCUCAGGCCCGAAGCGUGGCGGCACCUGCCGCCGGUGGUAAAAAAGAUCGGAAGAGCACACGUCU — higher, 1.16
- GGGUCGAUUAGUGAUAAUCGCGUGGAUAUGGCACGCAAGUUUCUACCGGGCACCGUAAAUGUCCGACUGGAGCCGUUCGGGCGGCUAUAAACAGACCUCAGGCCCGAAGCGUGGCGGCACCUGCCGCCGGUGGUAAAAAAGAUCGGAAGAGCACACGUCU — the same, 1.13
- GGGUCGAUUAGUAAUAAUCGCGUGGAUAUGGCACGCAAGUUUCUACCGGGCACCGUAAAUGUCCGACUGGAGCCGUUCGGGCGGCUAUAAACAGACCUCAGGCCCGAAGCGUGGCGGCACCUGCCGCCGGUGGUAAAAAAGAUCGGAAGAGCACACGUCU — higher, 1.16
- GGGUCGAUUAGUUAUAAUCGCGUGGAUAUGGCACGCAAGUUUCUACCGGGCACCGUAAAUGUCCGACUGGAGCCGUUCGGGCGGCUAUAAACAGACCUCAGGCCCGAAGCGUGGCGGCACCUGCCGCCGGUGGUAAAAAAGAUCGGAAGAGCACACGUCU — higher, 1.22
- GGGUCGAUUCUCCAUAAUCGCGUGGAUAUGGCACGCAAGUUUCUACCGGGCACCGUAAAUGUCCGACUGGAGCCGUUCGGGCGGCUAUAAACAGACCUCAGGCCCGAAGCGUGGCGGCACCUGCCGCCGGUGGUAAAAAAGAUCGGAAGAGCACACGUCU — higher, 2.35
- GGGUCGAUUACAGAUAAUCGCGUGGAUAUGGCACGCAAGUUUCUACCGGGCACCGUAAAUGUCCGACUGGAGCCGUUCGGGCGGCUAUAAACAGACCUCAGGCCCGAAGCGUGGCGGCACCUGCCGCCGGUGGUAAAAAAGAUCGGAAGAGCACACGUCU — higher, 1.24
- GGGUCGAUUACAUAUAAUCGCGUGGAUAUGGCACGCAAGUUUCUACCGGGCACCGUAAAUGUCCGACUGGAGCCGUUCGGGCGGCUAUAAACAGACCUCAGGCCCGAAGCGUGGCGGCACCUGCCGCCGGUGGUAAAAAAGAUCGGAAGAGCACACGUCU — higher, 1.17
- GGGUCGAUUACAAAUAAUCGCGUGGAUAUGGCACGCAAGUUUCUACCGGGCACCGUAAAUGUCCGACUGGAGCCGUUCGGGCGGCUAUAAACAGACCUCAGGCCCGAAGCGUGGCGGCACCUGCCGCCGGUGGUAAAAAAGAUCGGAAGAGCACACGUCU — higher, 1.22
- GGGUCGAUUACCCAUAAUCGCGUGGAUAUGGCACGCAAGUUUCUACCGGGCACCGUAAAUGUCCGACUGGAGCCGUUCGGGCGGCUAUAAACAGACCUCAGGCCCGAAGCGUGGCGGCACCUGCCGCCGGUGGUAAAAAAGAUCGGAAGAGCACACGUCU — lower, 1.02
- GGGUCGAUUAGCCAUAAUCGCGUGGAUAUGGCACGCAAGUUUCUACCGGGCACCGUAAAUGUCCGACUGGAGCCGUUCGGGCGGCUAUAAACAGACCUCAGGCCCGAAGCGUGGCGGCACCUGCCGCCGGUGGUAAAAAAGAUCGGAAGAGCACACGUCU — higher, 1.31
- GGGUCGAUUACGCAUAAUCGCGUGGAUAUGGCACGCAAGUUUCUACCGGGCACCGUAAAUGUCCGACUGGAGCCGUUCGGGCGGCUAUAAACAGACCUCAGGCCCGAAGCGUGGCGGCACCUGCCGCCGGUGGUAAAAAAGAUCGGAAGAGCACACGUCU — higher, 1.25
- GGGUCGAUUACUCAUAAUCGCGUGGAUAUGGCACGCAAGUUUCUACCGGGCACCGUAAAUGUCCGACUGGAGCCGUUCGGGCGGCUAUAAACAGACCUCAGGCCCGAAGCGUGGCGGCACCUGCCGCCGGUGGUAAAAAAGAUCGGAAGAGCACACGUCU — lower, 1.08
- GGGUCGAUUACACAUAAUCGCGUGGAUAUGGCACGCAAGUUUCUACCGGGCACCGUAAAUGUCCGACUGGAGCCGUUCGGGCGGCUAUAAACAGACCUCAGGCCCGAAGCGUGGCGGCACCUGCCGCCGGUGGUAAAAAAGAUCGGAAGAGCACACGUCU — higher, 1.26
- GGGUCGAUUACUAAUAAUCGCGUGGAUAUGGCACGCAAGUUUCUACCGGGCACCGUAAAUGUCCGACUGGAGCCGUUCGGGCGGCUAUAAACAGACCUCAGGCCCGAAGCGUGGCGGCACCUGCCGCCGGUGGUAAAAAAGAUCGGAAGAGCACACGUCU — higher, 1.23
- GGGUCGAUUACUGAUAAUCGCGUGGAUAUGGCACGCAAGUUUCUACCGGGCACCGUAAAUGUCCGACUGGAGCCGUUCGGGCGGCUAUAAACAGACCUCAGGCCCGAAGCGUGGCGGCACCUGCCGCCGGUGGUAAAAAAGAUCGGAAGAGCACACGUCU — lower, 1.12
- GGGUCGAUUACUUAUAAUCGCGUGGAUAUGGCACGCAAGUUUCUACCGGGCACCGUAAAUGUCCGACUGGAGCCGUUCGGGCGGCUAUAAACAGACCUCAGGCCCGAAGCGUGGCGGCACCUGCCGCCGGUGGUAAAAAAGAUCGGAAGAGCACACGUCU — higher, 1.18
- GGGUCGAUUACCGAUAAUCGCGUGGAUAUGGCACGCAAGUUUCUACCGGGCACCGUAAAUGUCCGACUGGAGCCGUUCGGGCGGCUAUAAACAGACCUCAGGCCCGAAGCGUGGCGGCACCUGCCGCCGGUGGUAAAAAAGAUCGGAAGAGCACACGUCU — lower, 1.07
- GGGUCGAUUACCAAUAAUCGCGUGGAUAUGGCACGCAAGUUUCUACCGGGCACCGUAAAUGUCCGACUGGAGCCGUUCGGGCGGCUAUAAACAGACCUCAGGCCCGAAGCGUGGCGGCACCUGCCGCCGGUGGUAAAAAAGAUCGGAAGAGCACACGUCU — lower, 1.09
- GGGUCGAUUACCUAUAAUCGCGUGGAUAUGGCACGCAAGUUUCUACCGGGCACCGUAAAUGUCCGACUGGAGCCGUUCGGGCGGCUAUAAACAGACCUCAGGCCCGAAGCGUGGCGGCACCUGCCGCCGGUGGUAAAAAAGAUCGGAAGAGCACACGUCU — lower, 1.02
- GGGUCGAUUACGAAUAAUCGCGUGGAUAUGGCACGCAAGUUUCUACCGGGCACCGUAAAUGUCCGACUGGAGCCGUUCGGGCGGCUAUAAACAGACCUCAGGCCCGAAGCGUGGCGGCACCUGCCGCCGGUGGUAAAAAAGAUCGGAAGAGCACACGUCU — lower, 1.09
- GGGUCGAUUACGGAUAAUCGCGUGGAUAUGGCACGCAAGUUUCUACCGGGCACCGUAAAUGUCCGACUGGAGCCGUUCGGGCGGCUAUAAACAGACCUCAGGCCCGAAGCGUGGCGGCACCUGCCGCCGGUGGUAAAAAAGAUCGGAAGAGCACACGUCU — lower, 1.06
- GGGUCGAUUAGACAUAAUCGCGUGGAUAUGGCACGCAAGUUUCUACCGGGCACCGUAAAUGUCCGACUGGAGCCGUUCGGGCGGCUAUAAACAGACCUCAGGCCCGAAGCGUGGCGGCACCUGCCGCCGGUGGUAAAAAAGAUCGGAAGAGCACACGUCU — lower, 1.07
- GGGUCGAUUAGGCAUAAUCGCGUGGAUAUGGCACGCAAGUUUCUACCGGGCACCGUAAAUGUCCGACUGGAGCCGUUCGGGCGGCUAUAAACAGACCUCAGGCCCGAAGCGUGGCGGCACCUGCCGCCGGUGGUAAAAAAGAUCGGAAGAGCACACGUCU — higher, 1.18
- GGGUCGAUUAGUCAUAAUCGCGUGGAUAUGGCACGCAAGUUUCUACCGGGCACCGUAAAUGUCCGACUGGAGCCGUUCGGGCGGCUAUAAACAGACCUCAGGCCCGAAGCGUGGCGGCACCUGCCGCCGGUGGUAAAAAAGAUCGGAAGAGCACACGUCU — higher, 1.39
- GGGUCGAUUAGGAAUAAUCGCGUGGAUAUGGCACGCAAGUUUCUACCGGGCACCGUAAAUGUCCGACUGGAGCCGUUCGGGCGGCUAUAAACAGACCUCAGGCCCGAAGCGUGGCGGCACCUGCCGCCGGUGGUAAAAAAGAUCGGAAGAGCACACGUCU — higher, 1.16
- GGGUCGAUUAGGUAUAAUCGCGUGGAUAUGGCACGCAAGUUUCUACCGGGCACCGUAAAUGUCCGACUGGAGCCGUUCGGGCGGCUAUAAACAGACCUCAGGCCCGAAGCGUGGCGGCACCUGCCGCCGGUGGUAAAAAAGAUCGGAAGAGCACACGUCU — higher, 1.18
- GGGUCGAUUAGGGAUAAUCGCGUGGAUAUGGCACGCAAGUUUCUACCGGGCACCGUAAAUGUCCGACUGGAGCCGUUCGGGCGGCUAUAAACAGACCUCAGGCCCGAAGCGUGGCGGCACCUGCCGCCGGUGGUAAAAAAGAUCGGAAGAGCACACGUCU — higher, 1.2
- GGGUCGAUUAGAAAUAAUCGCGUGGAUAUGGCACGCAAGUUUCUACCGGGCACCGUAAAUGUCCGACUGGAGCCGUUCGGGCGGCUAUAAACAGACCUCAGGCCCGAAGCGUGGCGGCACCUGCCGCCGGUGGUAAAAAAGAUCGGAAGAGCACACGUCU — lower, 1.08
- GGGUCGAUUAGAGAUAAUCGCGUGGAUAUGGCACGCAAGUUUCUACCGGGCACCGUAAAUGUCCGACUGGAGCCGUUCGGGCGGCUAUAAACAGACCUCAGGCCCGAAGCGUGGCGGCACCUGCCGCCGGUGGUAAAAAAGAUCGGAAGAGCACACGUCU — higher, 1.19
- GGGUCGAUUAGAUAUAAUCGCGUGGAUAUGGCACGCAAGUUUCUACCGGGCACCGUAAAUGUCCGACUGGAGCCGUUCGGGCGGCUAUAAACAGACCUCAGGCCCGAAGCGUGGCGGCACCUGCCGCCGGUGGUAAAAAAGAUCGGAAGAGCACACGUCU — lower, 1.1
- GGGUCGAUUAGCUAUAAUCGCGUGGAUAUGGCACGCAAGUUUCUACCGGGCACCGUAAAUGUCCGACUGGAGCCGUUCGGGCGGCUAUAAACAGACCUCAGGCCCGAAGCGUGGCGGCACCUGCCGCCGGUGGUAAAAAAGAUCGGAAGAGCACACGUCU — higher, 1.21
- GGGUCGAUUAGCGAUAAUCGCGUGGAUAUGGCACGCAAGUUUCUACCGGGCACCGUAAAUGUCCGACUGGAGCCGUUCGGGCGGCUAUAAACAGACCUCAGGCCCGAAGCGUGGCGGCACCUGCCGCCGGUGGUAAAAAAGAUCGGAAGAGCACACGUCU — lower, 1.07
- GGGUCGAUUAGCAAUAAUCGCGUGGAUAUGGCACGCAAGUUUCUACCGGGCACCGUAAAUGUCCGACUGGAGCCGUUCGGGCGGCUAUAAACAGACCUCAGGCCCGAAGCGUGGCGGCACCUGCCGCCGGUGGUAAAAAAGAUCGGAAGAGCACACGUCU — lower, 1.11
